According to patent publication US8143228B2, “Agents capable of downregulating an MSF-A dependent HIF-1α and use thereof in cancer treatment” (Medical Research Fund of Tel Aviv Sourasky Medical Center, priority 2004, dated 2012):

Legend:
Type in all cases: cell-based
PC-3 cells [1] = test: Cell proliferation assay with XTT reagent; conditions: PC-3-MSF-A vs PC-3-Neo cells, normoxia and hypoxia
Procedure: FIG. 13 is a graph depicting the effect of MSF-A over-expression on cell proliferation. PC-3-Neo and PC-3-MSF-A cells were grown under normoxic and hypoxic conditions for the indicated time and then analyzed for proliferation using XTT assay. Proliferation was expressed as increase in % of the initial O.D. measured on the next day of seeding which was considered 100%. Growth media were not changed until the end of the experiment.
Cell proliferation assay with XTT reagent—For cell proliferation assay, PC-3-Neo and PC-3-MSF-A cells were seeded in 96 well-plates (1000 cells/well in 200 μLI) using a 3-bis-(2-methoxy-4-nitro-5 sulfenyl)-(2H)-tetrazolium-5-carboxanilide (XTT) kit (Biological Industries Ltd. Kibbutz Beit Haemek, Israel). Wells filled with media served as a control. On the next day, the cells were cultured either under normoxic or hypoxic conditions. XTT reagent was added at days 0, 2, 4 and 6 following the manufacturer's instructions. The absorbance of the samples was measured using a microplate reader at a wavelength of 450 nm using Elisa reader 680 (Bio-rad, Hercules, Calif.). All experiments were performed in triplicate.

[2] = test system: HIF-1α transcriptional activity; test: HRE-dependent luciferase reporter gene assay in HEK 293 cells; conditions: transient transfection, hypoxia, compared with empty vector
Procedure: FIG. 7 is a graph depicting luciferase activity (a reporter of HIF-1α transcriptional activation) as a function of the presence or absence of the N-terminus of the MSF-A protein. HEK 293 cells were co-transfected with 0.1 μg HRE-dependent luciferase reporter [pBI-GL V6L (Post, D. E., and Van Meir, E. G. 2001. Generation of bidirectional hypoxia/HIF-responsive expression vectors to target gene expression to hypoxic cells. Gene Ther 8, 1801-1807. Mabjeesh, N. J., et al., 2002, Geldanamycin induces degradation of hypoxia-inducible factor 1 alpha protein via the proteasome pathway in prostate cancer cells. Cancer Res 62, 2478-2482) and the wild type (WT) MSF-A (p3xFlag-MSF-A), ΔN-MSF-A (ΔN) (p3xFlag-ΔN-MSF-A) or empty vector (EV) (p3xFlag-cmv-25) constructs as follows: Experiment (Exp.) No. 1=1 μg EV; Exp. No. 2=0.5 μg EV and 0.5 μg WT; Exp. No. 3-1 μg WT; Exp. No. 4=0.5 μg EV and 0.5 μg ΔN; Exp. No. 5=1 μg ΔN. After 24 hours of transfection, cells were subjected to normoxia or hypoxia for overnight and then analyzed for luciferase luminescence assay. Luciferase activity is presented as relative units per μg protein in each experiment. Columns represent means; bars represent SD; n=3; *, p<0.05 compared to hypoxia of EV. Note the significant decrease of luciferase activity in cells grown under hypoxia and transfected with the N-terminus truncated form (ΔN) of MSF-A as compared with cells transfected with the wild-type form of MSF-A. Also note that under normoxia, when the luciferase activity is hardly detected, no significant difference is obtained.
FIG. 8 is a graph depicting luciferase activity (a reporter of HIF-1α transcriptional activation) as a function of the presence or absence of the GTP binding site of MSF-A (ΔG). HEK 293 cells were cotransfected with HRE-dependent luciferase reporter and the expression vector encoding wild-type MSF-A (WT) (p3xFlag-MSF-A), the deleted GTP binding site form of MSF-A (ΔG) (p3xFlag-ΔG-MSF-A) or empty vector (EV) (p3xFlag-cmv-25) and then were exposed to hypoxia conditions as described in the description of FIG. 4, hereinabove. Luciferase activity is presented as relative units per μg protein in each experiment. Columns represent means; bars represent SD; n=3. Note the non-significant effect of the ΔG-MSF-A on HIF-1α activity.
Reporter gene assay and luminescence measurements—HRE-dependent luciferase activity was performed using the pBI-GL construct (pBI-GL V6L) containing six tandem copies of the VEGF hypoxia response element as previously described (Mabjeesh et al., 2002; Post and Van Meir, 2001). […] Luciferase enzymatic activity was measured using the commercial kit TROPIX (Bedford, Mass.) in the Galaxy luminometer (BMG Labtechnologies LUMIstar) following the manufacturer's instructions. […]

PC-3 cells [3] = test: Soft agar foci assay; conditions: PC-3-MSF-A vs PC-3-Neo cells, 4 weeks, normoxia
Procedure: FIGS. 14a-g are microscopic photographs (FIGS. 14a-f) and a graph depicting the effect of MSF-A over-expression on colony formation and growth (FIG. 14g). PC-3-Neo and PC-3-MSF-A cells were grown for 4 weeks in soft agar under normoxic conditions. Colonies were observed and counted. FIGS. 14a, c, and e—representative colonies from each plate seeded with PC-3-Neo cells; FIGS. 14b, d, and f—representative colonies from each plate seeded with PC-3-MSF-A cells; FIG. 14g—quantitative analysis of colony number from each cell type. Columns=means; bars=SD; n=3.
Soft Agar Foci assay—The assay tests the anchorage-independent growth of the cell in soft agar. Suspensions of PC-3-Neo or PC-3-MSF-A cells in 0.22% soft agar were poured on 35 mm-diameter plate (5000 cells/plate) pre-cast with 0.5% soft agar and were cultured for 4 weeks. Colonies (≧20 cells) were counted.

B1: MSF-A: myeloid/lymphoid leukemia septin-like fusion protein A (SEQ ID NO:3), over-expressed from the p3xFlag-MSF-A vector (protein, listed as Homo sapiens)
chain: MKKSYSGGTRTSSGRLRRLGDSSGPALKRSFEVEEVETPNSTPPRRVQTPLLRATVASSTQKFQDLGVKNSEPSARHVDSLSQRSPKASLRRVELSGPKAAEPVSRRTELSIDISSKQVENAGAIGPSRFGLKRAEVLGHKTPEPAPRRTEITIVKPQESAHRRMEPPASKVPEVPTAPATDAAPKRVEIQMPKPAEAPTAPSPAQTLENSEPAPVSQLQSRLEPKPQPPVAEATPRSQEATEAAPSCVGDMADTPRDAGLKQAPASRNEKAPVDFGYVGIDSILEQMRRKAMKQGFEFNIMVVGQSGLGKSTLINTLFKSKISRKSVQPTSEERIPKTIEIKSITHDIEEKGVRMKLTVIDTPGFGDHINNENCWQPIMKFINDQYEKYLQEEVNINRKKRIPDTRVHCCLYFIPATGHSLRPLDIEFMKRLSKVVNIVPVIAKADTLTLEERVHFKQRITADLLSNGIDVYPQKEFDEDSEDRLVNEKFREMIPFAVVGSDHEYQVNGKRILGRKTKWGTIEVENTTHCEFAYLRDLLIRTHMQNIKDITSSIHFEAYRVKRLNEGSSAMANGVEEKEPEAPEM
modifications: 3xFlag tag
PC-3 cells [1]
  proliferation rate (XTT): higher
[2]
  HIF-1α transcriptional activity (luciferase reporter): induced HIF-1α activity
PC-3 cells [3]
  colony formation in soft agar: significantly more colonies
